Source: US20100197768A1 (UNIVERSITY OF ROCHESTER, published 2010)

B1: CD1 (catalytic domain 1, a.a. 1-143 of hA3G) (other, human, UniProt Q9HC16 1-143, looked up, not shown: small tags and cut ends)
chain: MKPHFRNTVERMYRDTFSYNFYNRPILSRRNTVWLCYEVKTKGPSRPPLDAKIFRGQVYSELKYHPEMRFFHWFSKWRKLHRDQEYEVTWYISWSPCTKCTRDMATFLAEDPKVTLTIFVARLYYFWDPDYQEALRSLCQKRD
notes: range 1-143; also called N-terminal catalytic domain
B2: NCD1 (non-catalytic domain 1, a.a. 144-208 of hA3G) (other, human, UniProt Q9HC16 144-208, looked up)
chain: GPRATMKIMNYDEFQHCWSKFVYSQRELFEPWNNLPKYYILLHIMLGEILRHSMDPPTFTFNFNN
notes: range 144-208; not shown: N-terminal tag HA, V5, EGFP-HA or EGFP-V5, differing by experiment
B3: N1/2 (CD1-NCD1, a.a. 1-208 of hA3G) (other, human, UniProt Q9HC16 1-208, looked up)
chain: MKPHFRNTVERMYRDTFSYNFYNRPILSRRNTVWLCYEVKTKGPSRPPLDAKIFRGQVYSELKYHPEMRFFHWFSKWRKLHRDQEYEVTWYISWSPCTKCTRDMATFLAEDPKVTLTIFVARLYYFWDPDYQEALRSLCQKRDGPRATMKIMNYDEFQHCWSKFVYSQRELFEPWNNLPKYYILLHIMLGEILRHSMDPPTFTFNFNN
notes: range 1-208; Expressed in 293T cells; tested in RNase A treated cell extracts; also called N-terminal half of hA3G; not shown: N-terminal tag HA, V5, EGFP-HA or EGFP-V5, differing by experiment

Assays:
[1] = target: T1, Protein A (agarose beads, no antibody) (UniProt P38507 37-477); test: IP with Protein A beads alone
T1 construct: Bead-only control of the immunoprecipitations; also called Protein A beads
Procedure: (§1) Twenty-four hours after transfection the cells were harvested and cell extracts were analyzed by co-immunoprecipitation (co-IP). Extracts were treated with RNase A prior to IP to eliminate interactions that were due to RNA bridging.
(§2) Co-immunoprecipitation analysis. […] 24 hours after transfection cell extracts were harvested in NP-40 lysis buffer (50 mM Tris pH 7.4, 150 mM NaCl, 0.1% NP-40) with Complete® Mini EDTA free protease inhibitors (Roche). Cell extracts were treated with 40 μg/mL of RNase A for 1 hour at 37° C. and subsequently pre-cleared with Protein A agarose beads (Roche) tumbling for 1 hour at 4° C. The pre-cleared extracts were split and added to a Protein A bead slurry±V5 (Invitrogen) or GFP antibody (Clontech) for immunoprecipitation by tumbling overnight at 4° C. The beads were washed 3 times with NP-40 lysis buffer and eluted 3 times with 1×Treat (50 mM Tris pH 7.4, 10 mM DTT, 0.1% SDS).

[2] = target: the molecule itself; test: co-IP of HA and V5 tagged forms, V5 IP, HA western
Procedure: as §1, §2

[3] = target: T2, HIV-1 p55 Gag polyprotein (HIV-1, UniProt P12493 2-500); test: V5 IP of hA3G domain, p24 western for Gag, RNase A treated 293T extracts
T2 construct: Expressed in 293T cells co-transfected with HIV-1 DNA; detected with a p24 antibody
Procedure: Co-IP experiments were performed using various hA3G domains and Gag or Vif following RNase A digestion of cell extracts.
as §2

[4] = target: B2; test: co-IP of HA and V5 tagged domains, V5 IP, HA western
Procedure: as §1, §2

[5] = target: T3, EGFP-HA tagged Vif (HIV-1, UniProt P12504 1-192); test: GFP antibody IP of EGFP-HA-Vif, western for the hA3G domain, RNase A treated 293T extracts
T3 construct: Expressed in 293T cells from pIRES-P; also called EGFP-HA-Vif; HIV-1 Vif; not shown: N-terminal EGFP-HA tag

[6] = target: the molecule itself; test: co-IP of HA and V5 tagged forms, V5 IP, HA western, RNase A treated 293T extracts
Procedure: as §1, §2

[7] = target: B3; test: co-IP of HA and V5 tagged domains, V5 IP, HA western
Procedure: as §1, §2

[8] = target: the molecule itself; test: summary of the co-IP results of Example 2
Procedure: as §1, §2

[9] = target: B1; test: co-IP of HA and V5 tagged domains, V5 IP, HA western
Procedure: as §1, §2

T3 sequence (P12504 whole entry, the tested form may be a part): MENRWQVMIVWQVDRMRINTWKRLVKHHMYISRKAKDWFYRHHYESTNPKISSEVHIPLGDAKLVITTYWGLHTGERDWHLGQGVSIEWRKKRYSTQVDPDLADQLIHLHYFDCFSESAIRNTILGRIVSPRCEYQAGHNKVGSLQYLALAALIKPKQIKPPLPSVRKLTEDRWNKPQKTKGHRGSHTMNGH

Binder | binding result [1] | binding result [2] | binding result [3] | also measured
B1 | no binding | no binding | no binding | 
B2 | no binding | no binding |  | 
B3 | no binding | no binding |  | 
IMTYSEFKHCWDTFVDHQGCPFQPWDGLDEHSQDLSGRLRAILQNQEN (other, human, UniProt Q9HC16 337-384, looked up, range 337-384; not shown: N-terminal tag HA, V5, EGFP-HA or EGFP-V5, differing by experiment) [NCD2 (non-catalytic domain 2, a.a. 337-384 of hA3G)] | no binding | no binding |  | binding result [4]: no binding
C1/2 (CD2-NCD2, a.a. 209-384 of hA3G) (other, human, UniProt Q9HC16 209-384, looked up, Self co-IP was done with and without EGFP (±EGFP); also called C-terminal half of hA3G; not shown: N-terminal tag HA, V5, EGFP-HA or EGFP-V5, differing by experiment) EPWVRGRHETYLCYEVERMHNDTWVLLNQRRGFLCNQAPHKHGFLEGRHAELCFLDVIPFWKLDLDQDYRVTCFTSWSPCFSCAQEMAKFISKNKHVSLCIFTARIYDDQGRCQEGLRTLAEAGAKISIMTYSEFKHCWDTFVDHQGCPFQPWDGLDEHSQDLSGRLRAILQNQEN | no binding |  | no binding | binding result [5]: no binding; binding result [6]: binds; binding result [7]: no binding
C3/4 (larger C-terminal domain lacking only CD1, a.a. 144-384 of hA3G) (other, human, UniProt Q9HC16 144-384, looked up, range 144-384; not shown: N-terminal tag HA, V5, EGFP-HA or EGFP-V5, differing by experiment) GPRATMKIMNYDEFQHCWSKFVYSQRELFEPWNNLPKYYILLHIMLGEILRHSMDPPTFTFNFNNEPWVRGRHETYLCYEVERMHNDTWVLLNQRRGFLCNQAPHKHGFLEGRHAELCFLDVIPFWKLDLDQDYRVTCFTSWSPCFSCAQEMAKFISKNKHVSLCIFTARIYDDQGRCQEGLRTLAEAGAKISIMTYSEFKHCWDTFVDHQGCPFQPWDGLDEHSQDLSGRLRAILQNQEN | no binding |  |  | binding result [6]: binds
CD2 (catalytic domain 2, a.a. 209-336 of hA3G) (other, human, UniProt Q9HC16 209-336, looked up, also called C-terminal catalytic domain; not shown: N-terminal tag HA, V5, EGFP-HA or EGFP-V5, differing by experiment) EPWVRGRHETYLCYEVERMHNDTWVLLNQRRGFLCNQAPHKHGFLEGRHAELCFLDVIPFWKLDLDQDYRVTCFTSWSPCFSCAQEMAKFISKNKHVSLCIFTARIYDDQGRCQEGLRTLAEAGAKIS | no binding |  | no binding | binding result [8]: binds; binding result [9]: no binding
